Laboratory results from the supplement of paper PMC11246515.
± gives the standard deviation of the averaged measurements.

Assay: total protein half-life in vivo (active degradation + dilution); higher = more stable protein
[1] = E. coli NCM3722 delta-clpP delta-lon delta-hslV, growth: N-lim chemostat, doubling time 6 h
[2] = E. coli NCM3722 delta-clpP, growth: N-lim chemostat, doubling time 6 h
[3] = E. coli NCM3722 delta-hslV, growth: N-lim chemostat, doubling time 6 h
[4] = E. coli NCM3722 delta-lon, growth: N-lim chemostat, doubling time 6 h
[5] = E. coli NCM3722 delta-smpB, growth: N-lim chemostat, doubling time 6 h
[6] = wild type E. coli NCM3722, growth: C-lim chemostat, doubling time 6 h
[7] = wild type E. coli NCM3722, growth: C-lim chemostat, doubling time 12 h
[8] = wild type E. coli NCM3722, growth: N-lim chemostat, doubling time 6 h
[9] = wild type E. coli NCM3722, growth: N-lim chemostat, doubling time 12 h
[10] = wild type E. coli NCM3722, growth: P-lim chemostat, doubling time 6 h
[11] = wild type E. coli NCM3722, growth: P-lim chemostat, doubling time 12 h
[12] = wild type E. coli NCM3722, growth: C-lim chemostat, doubling time 3 h

Sequence	total protein half-life in vivo [1]	total protein half-life in vivo [2]	total protein half-life in vivo [3]	total protein half-life in vivo [4]	total protein half-life in vivo [5]	total protein half-life in vivo [6]	total protein half-life in vivo [7]	total protein half-life in vivo [8]	total protein half-life in vivo [9]	total protein half-life in vivo [10]	total protein half-life in vivo [11]	total protein half-life in vivo [12]
MPFRSNNPITRDELLSRFFPQYHPVTTFNSGLSGGSFLIEHQGQRFVVRQPHDPDAPQSAFLRQYRALSQLPACIAPKPHLYLRDWMVVDYLPGAVKTYLPDTNELAGLLYYLHQQPRFGWRITLLPLLELYWQQSDPARRTVGWLRMLKRLRKAREPRPLRLSPLHMDVHAGNLVHSASGLKLIDWEYAGDGDIALELAAVWVENTEQHRQLVNDYATRAKIYPAQLWRQVRRWFPWLLMLKAGWFEYRWRQTGDQQFIRLADDTWRQLLIKQ	6.3 ± 0.21 h	6.27 ± 0.31 h	6.3 h	6.04 ± 0.35 h	5.66 h	7.13 h	> 16 h	6.24 ± 0.49 h	13.6 h	5.96 h	11.1 h	
MPGLKITLLQQPLVWMDGPANLRHFDRQLEGITGRDVIVLPEMFTSGFAMEAAASSLAQDDVVNWMTAKAQQCNALIAGSVALQTESGSVNRFLLVEPGGTVHFYDKRHLFRMADEHLHYKAGNARVIVEWRGWRILPLVCYDLRFPVWSRNLNDYDLALYVANWPAPRSLHWQALLTARAIENQAYVAGCNRVGSDGNGCHYRGDSRVINPQGEIIATADAHQATRIDAELSMAALREYREKFPAWQDADEFRLW	4.72 ± 0.34 h	4.042 ± 0.0079 h	4.46 ± 0.63 h	4.4 ± 0.72 h	3.9 ± 0.082 h	5.22 ± 0.33 h	11.7 ± 4.7 h	4.42 ± 0.34 h	6.49 h	5.74 ± 0.18 h	10.8 ± 0.35 h	2.74 ± 0.14 h
MPKKNEAPASFEKALSELEQIVTRLESGDLPLEEALNEFERGVQLARQGQAKLQQAEQRVQILLSDNEDASLTPFTPDNE [P0A8G9]	7.56 h	5.9 h	6.62 h			6.16 ± 0.35 h	14.4 h	5.09 ± 0.59 h		4.86 ± 0.049 h	14.2 ± 1.7 h	
MPKLGMQSIRRRQLIDATLEAINEVGMHDATIAQIARRAGVSTGIISHYFRDKNGLLEATMRDITSQLRDAVLNRLHALPQGSAEQRLQAIVGGNFDETQVSSAAMKAWLAFWASSMHQPMLYRLQQVSSRRLLSNLVSEFRRELPREQAQEAGYGLAALIDGLWLRAALSGKPLDKTRANSLTRHFITQHLPTD	4.85 ± 0.33 h	4.25 h		4.46 h				4.99 h				
MPKLILASTSPWRRALLEKLQISFECAAPEVDETPRSDESPRQLVLRLAQEKAQSLASRYPDHLIIGSDQVCVLDGEITGKPLTEENARLQLRKASGNIVTFYTGLALFNSANGHLQTEVEPFDVHFRHLSEAEIDNYVRKEHPLHCAGSFKSEGFGITLFERLEGRDPNTLVGLPLIALCQMLRREGKNPLMG [P0A729]	4.57 ± 0.6 h		4.118 ± 0.0072 h		3.68 ± 0.16 h	5.174 ± 0.02 h	8.34 ± 0.7 h	3.77 ± 0.35 h	6.24 ± 0.41 h	5.45 ± 0.28 h	12.1 ± 0.56 h	3.14 ± 0.5 h
MPKLRLIGLTLLALSATAVSHAEETRYVSDELNTWVRSGPGDHYRLVGTVNAGEEVTLLQTDANTNYAQVKDSSGRTAWIPLKQLSTEPSLRSRVPDLENQVKTLTDKLTNIDNTWNQRTAEMQQKVAQSDSVINGLKEENQKLKNELIVAQKKVDAASVQLDDKQRTIIMQWFMYGGGVLGLGLLLGLVLPHLIPSRKRKDRWMN [P0ADT8]			6.56 ± 0.2 h	6.43 ± 0.12 h	5.94 ± 0.49 h	5.84 ± 0.24 h	11.1 ± 0.11 h	5.83 ± 0.15 h	11.8 ± 0.99 h	5.51 ± 0.2 h	12.5 ± 0.39 h	3.03 ± 0.052 h
MPKPGILKSKSMFCVIYRSSKRDQTYLYVEKKDDFSRVPEELMKGFGQPQLAMILPLDGRKKLVNADIEKVKQALTEQGYYLQLPPPPEDLLKQHLSVMGQKTDDTNK [P0AB43]	4.94 ± 0.22 h	4.28 ± 0.62 h	3.56 ± 0.33 h	4.78 ± 0.62 h	3.88 ± 0.55 h	4.59 ± 0.29 h	8.2 ± 0.32 h	3.5 h	5.72 ± 0.24 h	4.48 ± 0.068 h	8.702 ± 0.013 h	2.71 ± 0.15 h
MPKSVIIPAGSSAPLAPFVPGTLADGVVYVSGTLAFDQHNNVLFADDPKAQTRHVLETIRKVIETAGGTMADVTFNSIFITDWKNYAAINEIYAEFFPGDKPARFCIQCGLVKPDALVEIATIAHIAK [P0AFQ5]					3.86 h							
